Measurements from the supplement of paper PMC10567573.

B1: SCNN1D (parent)
chain: RRPSPVLRHLELLDEFARENIDSL

Variants of: B1
Assay: protein stability index of a GFP-peptide fusion (GPS, HEK-293T) (PSI 1-6); higher = more stable
Settings: c terminus: a fixed tail appended
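Also: lentivirally expressed fusions sorted by FACS into six bins by GFP to DsRed ratio, PSI derived from sequencing read proportions per bin multiplied by bin number.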

Protein stability index of substitutions, site by site:
P3: N 3.06, Q 1.92, R 2.85, S 2.72, T 2.83, V 1.44, W 1.76, Y 2.31
S4: A 2.63, C 2.99, D 3.68, E 3.61, F 2.47, G 2.65, H 2.14, I 2.67, K 3.14, L 2.66, M 2.88, N 2.34, P 3.17, Q 3.89, R 2.87, T 3.15, V 2.82, W 2.35, Y 2.5
P5: A 2.4, C 2.17, D 3.08, E 3.77, F 2.19, G 3.53, H 2.97, I 2.27, K 3.59, L 2.06, M 2.5, N 3.22, Q 4.62, R 3.63, S 2.85, T 3.05, V 2.43, W 1.93, Y 2.65
V6: A 2.86, C 2.72, D 4.09, E 3.37, F 2.28, G 3.96, H 3.79, I 1.95, K 2.63, L 1.91, M 2.31, N 3.77, P 4.22, Q 2.82, R 2.43, S 3.48, T 2.98, W 1.79, Y 1.96
L7: A 3.04, C 3.53, D 4.49, E 3.53, F 3.29, G 4.17, H 3.4, I 3.1, K 3.82, M 2.9, N 3.6, P 4.08, Q 3.4, R 3.64, S 3.38, T 3.48, V 3.1, W 2.18, Y 3.24
R8: A 3.33, C 2.09, D 4.71, E 4.4, F 2.61, H 3.61, I 2.37, K 3.5, L 2.49, M 3.43, N 4.34, P 4.18, Q 4.09, S 3.77, T 3.59, V 2.99, W 2.7, Y 2.87
H9: A 2.65, C 2.48, D 3.99, E 3.99, F 1.74, G 3.76, I 2.24, K 3.28, L 2.17, M 1.89, N 4.09, P 3.95, Q 3.79, R 3.92, S 3.68, T 3.83, V 2.4, W 1.69, Y 1.83
L10: A 3.84, C 3.24, D 4.42, E 4.49, F 3.9, G 3.95, H 3.98, I 2.1, K 4.33, M 2.34, N 4.23, P 3.56, Q 3.84, R 4.46, S 4.16, T 3.59, V 3.41, W 3.23, Y 3
E11: A 3.1, C 2.01, D 3.55, F 1.89, G 4.33, H 3.18, I 1.9, K 2.83, L 1.41, M 2.14, N 3.5, P 3.75, Q 3.06, R 2.96, S 3.25, T 2.41, V 2.56, W 2.49, Y 2.25
L12: A 3.81, C 3.97, D 4.64, E 4.08, F 2.81, G 4.09, H 4.25, I 3.65
